Measured values taken from patent publication US20160272683A1 (Novo Nordisk, published 2016).
Values belong to the binder of their own block, whether it stands above or below them. Numbered stars: 1 amine (or outer) side, 2 acyl side, 3 side chain; on linkers, the order of the positions; unused ones are H or OH. * marks the point of attachment. C20 diacid = O=C(O)CCCCCCCCCCCCCCCCCCC(=O)*; C18 diacid = O=C(O)CCCCCCCCCCCCCCCCC(=O)*; γGlu = O=C(O)[C@H](CCC(=O)[*:2])N[*:1]

What was measured:
[1] = biological target: T1, human amylin 3(a) receptor (human calcitonin receptor co-expressed with RAMP-3) (human, UniProt P30988 25-474; O60896 24-148, limits assumed); experiment: cell-based or functional assay
T1 sequence (looked up) 1: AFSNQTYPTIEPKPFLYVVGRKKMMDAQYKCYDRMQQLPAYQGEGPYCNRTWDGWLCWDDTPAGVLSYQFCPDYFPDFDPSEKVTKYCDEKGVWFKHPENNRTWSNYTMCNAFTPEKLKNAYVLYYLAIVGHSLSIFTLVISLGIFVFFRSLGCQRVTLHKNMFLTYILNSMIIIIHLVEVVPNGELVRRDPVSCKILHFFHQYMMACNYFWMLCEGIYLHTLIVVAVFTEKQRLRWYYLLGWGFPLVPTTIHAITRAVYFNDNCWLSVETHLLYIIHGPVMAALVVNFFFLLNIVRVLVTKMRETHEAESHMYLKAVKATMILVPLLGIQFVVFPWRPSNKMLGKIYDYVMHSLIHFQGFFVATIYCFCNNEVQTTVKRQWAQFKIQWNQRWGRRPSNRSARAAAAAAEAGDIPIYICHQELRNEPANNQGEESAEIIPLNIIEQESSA
T1 sequence (looked up) 2: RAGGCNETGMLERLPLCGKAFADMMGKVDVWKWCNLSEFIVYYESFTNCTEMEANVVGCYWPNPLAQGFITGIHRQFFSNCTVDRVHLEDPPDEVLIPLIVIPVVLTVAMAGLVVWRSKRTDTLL

[2] = biological target: T2, human calcitonin receptor (human, UniProt P30988 25-474); experiment: cell-based or functional assay
T2 sequence (looked up): T1 sequence (looked up) 1

B3: [N-terminal(C20 diacid-gGlu), des1, 23Y, 30S, 31G, 34G, C-terminal(-)]mimylin (peptide)
peptide: {C20 diacid-γGlu}-ASELSTAALGRLSAELHELATYPRTETGSGSPG-OH
SMILES: CC(C)C[C@H](NC(=O)[C@H](C)NC(=O)[C@H](C)NC(=O)[C@@H](NC(=O)[C@H](CO)NC(=O)[C@H](CC(C)C)NC(=O)[C@H](CCC(=O)O)NC(=O)[C@H](CO)NC(=O)[C@H](C)NC(=O)CC[C@H](NC(=O)CCCCCCCCCCCCCCCCCCC(=O)O)C(=O)O)[C@@H](C)O)C(=O)NCC(=O)N[C@@H](CCCNC(=N)N)C(=O)N[C@@H](CC(C)C)C(=O)N[C@@H](CO)C(=O)N[C@@H](C)C(=O)N[C@@H](CCC(=O)O)C(=O)N[C@@H](CC(C)C)C(=O)N[C@@H](Cc1c[nH]cn1)C(=O)N[C@@H](CCC(=O)O)C(=O)N[C@@H](CC(C)C)C(=O)N[C@@H](C)C(=O)N[C@H](C(=O)N[C@@H](Cc1ccc(O)cc1)C(=O)N1CCC[C@H]1C(=O)N[C@@H](CCCNC(=N)N)C(=O)N[C@H](C(=O)N[C@@H](CCC(=O)O)C(=O)N[C@H](C(=O)NCC(=O)N[C@@H](CO)C(=O)NCC(=O)N[C@@H](CO)C(=O)N1CCC[C@H]1C(=O)NCC(=O)O)[C@@H](C)O)[C@@H](C)O)[C@@H](C)O
hAmylin-R funct. EC50 (pM) [1]: 187 pM | hCTR funct. EC50 (pM) [2]: 64 pM

B5: [N-terminal(C18 diacid-gGlu), des1, 4Q, 16Q, 30S, 31G]mimylin (peptide)
peptide: {C18 diacid-γGlu}-ASQLSTAALGRLSAQLHELATLPRTETGSGSP-NH2
SMILES: CC(C)C[C@H](NC(=O)[C@H](C)NC(=O)[C@H](C)NC(=O)[C@@H](NC(=O)[C@H](CO)NC(=O)[C@H](CC(C)C)NC(=O)[C@H](CCC(N)=O)NC(=O)[C@H](CO)NC(=O)[C@H](C)NC(=O)CC[C@H](NC(=O)CCCCCCCCCCCCCCCCC(=O)O)C(=O)O)[C@@H](C)O)C(=O)NCC(=O)N[C@@H](CCCNC(=N)N)C(=O)N[C@@H](CC(C)C)C(=O)N[C@@H](CO)C(=O)N[C@@H](C)C(=O)N[C@@H](CCC(N)=O)C(=O)N[C@@H](CC(C)C)C(=O)N[C@@H](Cc1c[nH]cn1)C(=O)N[C@@H](CCC(=O)O)C(=O)N[C@@H](CC(C)C)C(=O)N[C@@H](C)C(=O)N[C@H](C(=O)N[C@@H](CC(C)C)C(=O)N1CCC[C@H]1C(=O)N[C@@H](CCCNC(=N)N)C(=O)N[C@H](C(=O)N[C@@H](CCC(=O)O)C(=O)N[C@H](C(=O)NCC(=O)N[C@@H](CO)C(=O)NCC(=O)N[C@@H](CO)C(=O)N1CCC[C@H]1C(N)=O)[C@@H](C)O)[C@@H](C)O)[C@@H](C)O
hAmylin-R funct. EC50 (pM) [1]: 9 pM | hCTR funct. EC50 (pM) [2]: 13 pM

B6: [N-terminal(C18 diacid), 5I]mimylin (peptide)
peptide: {C18 diacid}-EASEISTAALGRLSAELHELATLPRTETGPESP-NH2
SMILES: CC[C@H](C)[C@H](NC(=O)[C@H](CCC(=O)O)NC(=O)[C@H](CO)NC(=O)[C@H](C)NC(=O)[C@H](CCC(=O)O)NC(=O)CCCCCCCCCCCCCCCCC(=O)O)C(=O)N[C@@H](CO)C(=O)N[C@H](C(=O)N[C@@H](C)C(=O)N[C@@H](C)C(=O)N[C@@H](CC(C)C)C(=O)NCC(=O)N[C@@H](CCCNC(=N)N)C(=O)N[C@@H](CC(C)C)C(=O)N[C@@H](CO)C(=O)N[C@@H](C)C(=O)N[C@@H](CCC(=O)O)C(=O)N[C@@H](CC(C)C)C(=O)N[C@@H](Cc1c[nH]cn1)C(=O)N[C@@H](CCC(=O)O)C(=O)N[C@@H](CC(C)C)C(=O)N[C@@H](C)C(=O)N[C@H](C(=O)N[C@@H](CC(C)C)C(=O)N1CCC[C@H]1C(=O)N[C@@H](CCCNC(=N)N)C(=O)N[C@H](C(=O)N[C@@H](CCC(=O)O)C(=O)N[C@H](C(=O)NCC(=O)N1CCC[C@H]1C(=O)N[C@@H](CCC(=O)O)C(=O)N[C@@H](CO)C(=O)N1CCC[C@H]1C(N)=O)[C@@H](C)O)[C@@H](C)O)[C@@H](C)O)[C@@H](C)O
hAmylin-R funct. EC50 (pM) [1]: 7 pM | hCTR funct. EC50 (pM) [2]: 7 pM

B7: [N-terminal(C20 diacid-gGlu), des1, 23Y, 30S, 31G, 34K, C-terminal(-)]mimylin (peptide)
peptide: {C20 diacid-γGlu}-ASELSTAALGRLSAELHELATYPRTETGSGSPK-OH
SMILES: CC(C)C[C@H](NC(=O)[C@H](C)NC(=O)[C@H](C)NC(=O)[C@@H](NC(=O)[C@H](CO)NC(=O)[C@H](CC(C)C)NC(=O)[C@H](CCC(=O)O)NC(=O)[C@H](CO)NC(=O)[C@H](C)NC(=O)CC[C@H](NC(=O)CCCCCCCCCCCCCCCCCCC(=O)O)C(=O)O)[C@@H](C)O)C(=O)NCC(=O)N[C@@H](CCCNC(=N)N)C(=O)N[C@@H](CC(C)C)C(=O)N[C@@H](CO)C(=O)N[C@@H](C)C(=O)N[C@@H](CCC(=O)O)C(=O)N[C@@H](CC(C)C)C(=O)N[C@@H](Cc1c[nH]cn1)C(=O)N[C@@H](CCC(=O)O)C(=O)N[C@@H](CC(C)C)C(=O)N[C@@H](C)C(=O)N[C@H](C(=O)N[C@@H](Cc1ccc(O)cc1)C(=O)N1CCC[C@H]1C(=O)N[C@@H](CCCNC(=N)N)C(=O)N[C@H](C(=O)N[C@@H](CCC(=O)O)C(=O)N[C@H](C(=O)NCC(=O)N[C@@H](CO)C(=O)NCC(=O)N[C@@H](CO)C(=O)N1CCC[C@H]1C(=O)N[C@@H](CCCCN)C(=O)O)[C@@H](C)O)[C@@H](C)O)[C@@H](C)O
hAmylin-R funct. EC50 (pM) [1]: 239 pM | hCTR funct. EC50 (pM) [2]: 88 pM

B8: [N-terminal(C18 diacid-gGlu), des1, 5V, 9V, 30S, 31G]mimylin (peptide)
peptide: {C18 diacid-γGlu}-ASEVSTAVLGRLSAELHELATLPRTETGSGSP-NH2
hAmylin-R funct. EC50 (pM) [1]: 32 pM | hCTR funct. EC50 (pM) [2]: 13 pM

B9: [N-terminal(C20 diacid-gGlu), -1E, 1A, 23Y, 30S, 31G]mimylin (peptide)
peptide: {C20 diacid-γGlu}-EAASELSTAALGRLSAELHELATYPRTETGSGSP-NH2
SMILES: CC(C)C[C@H](NC(=O)[C@H](C)NC(=O)[C@H](C)NC(=O)[C@@H](NC(=O)[C@H](CO)NC(=O)[C@H](CC(C)C)NC(=O)[C@H](CCC(=O)O)NC(=O)[C@H](CO)NC(=O)[C@H](C)NC(=O)[C@H](C)NC(=O)[C@H](CCC(=O)O)NC(=O)CC[C@H](NC(=O)CCCCCCCCCCCCCCCCCCC(=O)O)C(=O)O)[C@@H](C)O)C(=O)NCC(=O)N[C@@H](CCCNC(=N)N)C(=O)N[C@@H](CC(C)C)C(=O)N[C@@H](CO)C(=O)N[C@@H](C)C(=O)N[C@@H](CCC(=O)O)C(=O)N[C@@H](CC(C)C)C(=O)N[C@@H](Cc1c[nH]cn1)C(=O)N[C@@H](CCC(=O)O)C(=O)N[C@@H](CC(C)C)C(=O)N[C@@H](C)C(=O)N[C@H](C(=O)N[C@@H](Cc1ccc(O)cc1)C(=O)N1CCC[C@H]1C(=O)N[C@@H](CCCNC(=N)N)C(=O)N[C@H](C(=O)N[C@@H](CCC(=O)O)C(=O)N[C@H](C(=O)NCC(=O)N[C@@H](CO)C(=O)NCC(=O)N[C@@H](CO)C(=O)N1CCC[C@H]1C(N)=O)[C@@H](C)O)[C@@H](C)O)[C@@H](C)O
hAmylin-R funct. EC50 (pM) [1]: 17 pM | hCTR funct. EC50 (pM) [2]: 15 pM

Continued, values first:

hAmylin-R funct. EC50 (pM) [1]: 33 pM | hCTR funct. EC50 (pM) [2]: 28 pM
B1: [N-terminal(C18 diacid-gGlu), des1, 6T, 9V, 30S, 31G]mimylin (peptide)
peptide: {C18 diacid-γGlu}-ASELTTAVLGRLSAELHELATLPRTETGSGSP-NH2
SMILES: CC(C)C[C@H](NC(=O)[C@H](CCC(=O)O)NC(=O)[C@H](Cc1c[nH]cn1)NC(=O)[C@H](CC(C)C)NC(=O)[C@H](CCC(=O)O)NC(=O)[C@H](C)NC(=O)[C@H](CO)NC(=O)[C@H](CC(C)C)NC(=O)[C@H](CCCNC(=N)N)NC(=O)CNC(=O)[C@H](CC(C)C)NC(=O)[C@@H](NC(=O)[C@H](C)NC(=O)[C@@H](NC(=O)[C@@H](NC(=O)[C@H](CC(C)C)NC(=O)[C@H](CCC(=O)O)NC(=O)[C@H](CO)NC(=O)[C@H](C)NC(=O)CC[C@H](NC(=O)CCCCCCCCCCCCCCCCC(=O)O)C(=O)O)[C@@H](C)O)[C@@H](C)O)C(C)C)C(=O)N[C@@H](C)C(=O)N[C@H](C(=O)N[C@@H](CC(C)C)C(=O)N1CCC[C@H]1C(=O)N[C@@H](CCCNC(=N)N)C(=O)N[C@H](C(=O)N[C@@H](CCC(=O)O)C(=O)N[C@H](C(=O)NCC(=O)N[C@@H](CO)C(=O)NCC(=O)N[C@@H](CO)C(=O)N1CCC[C@H]1C(N)=O)[C@@H](C)O)[C@@H](C)O)[C@@H](C)O

hAmylin-R funct. EC50 (pM) [1]: 26 pM | hCTR funct. EC50 (pM) [2]: 12 pM
B2: [N-terminal(C20 diacid-gGlu), des1, 12H, 25H, 30S, 31G]mimylin (peptide)
peptide: {C20 diacid-γGlu}-ASELSTAALGHLSAELHELATLPHTETGSGSP-NH2
SMILES: CC(C)C[C@H](NC(=O)[C@H](C)NC(=O)[C@H](C)NC(=O)[C@@H](NC(=O)[C@H](CO)NC(=O)[C@H](CC(C)C)NC(=O)[C@H](CCC(=O)O)NC(=O)[C@H](CO)NC(=O)[C@H](C)NC(=O)CC[C@H](NC(=O)CCCCCCCCCCCCCCCCCCC(=O)O)C(=O)O)[C@@H](C)O)C(=O)NCC(=O)N[C@@H](Cc1c[nH]cn1)C(=O)N[C@@H](CC(C)C)C(=O)N[C@@H](CO)C(=O)N[C@@H](C)C(=O)N[C@@H](CCC(=O)O)C(=O)N[C@@H](CC(C)C)C(=O)N[C@@H](Cc1c[nH]cn1)C(=O)N[C@@H](CCC(=O)O)C(=O)N[C@@H](CC(C)C)C(=O)N[C@@H](C)C(=O)N[C@H](C(=O)N[C@@H](CC(C)C)C(=O)N1CCC[C@H]1C(=O)N[C@@H](Cc1c[nH]cn1)C(=O)N[C@H](C(=O)N[C@@H](CCC(=O)O)C(=O)N[C@H](C(=O)NCC(=O)N[C@@H](CO)C(=O)NCC(=O)N[C@@H](CO)C(=O)N1CCC[C@H]1C(N)=O)[C@@H](C)O)[C@@H](C)O)[C@@H](C)O

hAmylin-R funct. EC50 (pM) [1]: 461 pM | hCTR funct. EC50 (pM) [2]: 127 pM
B4: [N-terminal(C20 diacid-gGlu), des1, 23Y, 30S, 31G, 33Y, C-terminal(-)]mimylin (peptide)
peptide: {C20 diacid-γGlu}-ASELSTAALGRLSAELHELATYPRTETGSGSY-OH
